Here are results for 41 sequences from the nanobody polyreactivity screen of Harvey et al. (2022).

The series can be described thus: yeast display, Sf9 membrane polyspecificity reagent, FACS + sequencing; frameworks hold sequencing errors. In a few lines: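 Galactose induction of a Saccharomyces cerevisiae BJ5465 synthetic nanobody display library ran 36–48 hours. The cells were then stained for 1 hour at 4 °C with 10% biotinylated, detergent-solubilized Sf9 membrane reagent, pulled down on streptavidin microbeads and FACS-sorted into low and high (top ~1%) gates on expression and reagent-binding fluorescence. Labels for polyreactivity follow the gate of origin.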
On to “QVQLVESGGGLVQAGGSHRLSCAASGSTFRVYAMGWYRQAPGKERELVATISWGGGRTYYADSVKGRFTISRDNAKNTVYLQMNSLKPEDTAVYYCAADQRWTTDQPTAGDYWGQGTQVTVSS”, for which the “polyreactivity (PSR sort gate)” value is given as “low polyreactivity”.
Take “QVQLVESGGGLVQAGGSHRLSCAASGSTFTYNAMGWYRQAPGKERELVASISSGTTTYYADSVKGRFTISRDNAKNTVYLQMNSLIPEDTAVYDCAVDSWSRVQGWLAHNYDYWGQGTQVTVSS”: the “polyreactivity (PSR sort gate)” value is “low polyreactivity”.
Turning to “QVQLVESGGGLVQAGGSHRLSCAASGSTFVPYTMGWYRQAPGKERELVAAISGSGGTDYADSVKGRFTISRDNAKNTVYLQMNSLKPEDTAVYYCATDGLDFWFIYDYWGQGTQVTVST”, the “polyreactivity (PSR sort gate)” value was “low polyreactivity”.
Take “QVQLVESGGGLVQAGGSHRLSCAASGSTFVRNAMGWYRPAPAKERGLVAGISTSGGRTYYADSVKGRFTISRDNAKNTVYLQMNSLKPEDTAVYDCAVLAWRSIAYDKYDYWGQGTQVTVSS”: the “polyreactivity (PSR sort gate)” value is on record as “high polyreactivity”.
The result for “QVQLVESGGGLVQAGGSHRLSCAASGSTLSVNAMGWYRQAPGKERELGAAIDFDGGDTYYADSVKGRFTLSRDNAKNTVYLQMNSLKPEDTAVYSCNAALRWKYDWVQGTQVTVSS” reads “low polyreactivity”.
For the sequence “QVQLVESGGGLVQAGGSHRLSCAASGYIFGYNAMGWYRQAPGKEREFVAAIRFSGGSTYYADSVKGRFTISRDNAKNTVYLQMNSMKPEDTAVYYCAKRGYGHLIPIAYEYWGQGTQVTVSS”, the “polyreactivity (PSR sort gate)” value is “low polyreactivity”.
To “QVQLVESGGGLVQAGGSHRLSCASYGLIFESYVMGWDRQAPGKERELVAAIRSSGGSTYYADSVKGRFTISRDNAKNTVYLQMNCLNPEDTAVYYCAANYYYYLTISWWYAYDYWGQGTQVTVSS” belongs “low polyreactivity”.
The result for “QVQLVESGGGLVQAGGSHRLSCDASGYIFRRYAMGWYRQAPGKERELVAAISWRGGSTYYADSVKGRFTISRDNAKNTVYLQMNSLKPEDSAVYYCAKVVPGAGHLDEYWGQGTQVTVSS” reads “high polyreactivity”; that for “QVQLVESGGGLVQAGGSHRLSFAASGSIFTRYAMGWYRPAHGKEREFVAGISWTGGSTYYADSVKGRFTISRDIAKNTVYLQMYRLKPEDTGVYYCAAGYWYSAFSGWWDYSDLYYWGQGTQVTVSS”, “high polyreactivity”; that for “QVQLVESGGGLVQAGGSHRLSSAASGSILADNAMGWYRQAPGKERELVAAISLRGGRTYYADSVKGGFTISRDNAKNTVYLQMNSLKPEDTAVYYCAAVGSFHIVDYWGEGTQVTVSS”, “high polyreactivity”.
On to “QVQLVESGGGLVQAGGSIGLNCAASVSSYEPYVMGWYRQATGKEMELVGAIYESGDTTYYADSVKGRFTISRDNAKNTVYLQMNSLKPEDSAVYYCNAEDPSIYGWWRVGEYDYWGQGTQVTVSS”, for which the “polyreactivity (PSR sort gate)” value was “low polyreactivity”.
The result for “QVQLVESGGGLVQAGGSIRLSCAASGFTIFLNAMGWYRQAPGKERELVAAITVSGSSTYYADSVKGRFTISRDNAKNTVYLQMNSLKPEETAVYYCNAEIYSPYYTYDYWGQGTQVTVSS” reads “low polyreactivity”; that for “QVQLVESGGGLVQAGGSIRLSCAASGGTFSAYAMGWYRQAPGKERELVAAINISGGRTYYADSVKGRFTISRDNAKNTVYLQMNSLKPEDTAVYYCAAKNFRDRGNDYWGQGTQVTVSS”, “high polyreactivity”; that for “QVQLVESGGGLVQAGGSIRLSCAASGITFAWNAMGWYRQAPGKERELVAAITKRGGSTYYADSVKGRFTISRDNAKNTVYLQMNSLKPEYTAFYYCAARGYISRYDARANAVQGNYWGQGTQVTVSS”, “high polyreactivity”.
With “QVQLVESGGGLVQAGGSIRLSCAASGRIFYAYTMGWYRQAPVKERELVAAIRRRGTTYYADSVKGRFTISRDNAKNTVYLQMNSLKPDDTAVYYCAKDALGYRTSSALLGDYWGQGTQVTVSS”, the “polyreactivity (PSR sort gate)” value is listed as “high polyreactivity”.
To “QVQLVESGGGLVQAGGSIRLSCAASGRTFDSNAIGWYRQAAGKEWQLVAAISCSGDTTYDADTVKGRFTISRDNAKNTVYLQINILKPEDTAVYYCAADHDSYDSGYDYWGQGTQGTVSS” belongs “low polyreactivity”.
With “QVQLVESGGGLVQAGGSIRLSCAASGRTFPAYAMGWYRQAPGKERELVAAISYSGGRTRYADSVKGRFTISRDNAKYTVYLQMNSLKPEDTAVYYCNRVIPTQSLRDYYWGQGTQVTVSS”, the “polyreactivity (PSR sort gate)” value is given as “high polyreactivity”.
To “QVQLVESGGGLVQAGGSIRLSCAASGRTFYGYAMGRYRQAPGKEREFDAAISVGGVSTYYADSVKGRFTISRDNAKNTVYLQMNSLKPEDTAVYYCAAYTRYWSYGYWGQGTQVTVSS” belongs “high polyreactivity”; to “QVQLVESGGGLVQAGGSIRLSCAASGSIFYYGLGWYRQAPGKERELVAAITRGGSTYYADSVKGRFTISRDNAKNTVYLQMNSLKPEDTAVYYCAKYPVGGYDYWGQGTQVTVSS”, “low polyreactivity”.
The result for “QVQLVESGGGLVQAGGSIRLSCAASGSLFEPYFMGWYRQAPGKERELVAAIRQTGGSTYYADSVKGRFTISRDTAKNTVYLQMNSLKPEDTAVYYCAKDSQTARDFDYWGQGTQGTVSS” reads “low polyreactivity”; that for “QVQLVESGGGLVQAGGSIRLSCAASGSTFRYYTMGWYRQAPGKERELVATITRDGRTYYADSVKGRFTISRDNAKNTVYLQMYSLKPEDTAVYYCNVRRAFSGWRGYDYWGQGTQVTVSS”, “high polyreactivity”; that for “QVQLVESGGGLVQAGGSIRLSCAASGYTFVTNAMGWYRPAPGKERELVAAITTVGSTNYADSGKGRFTISRDNAKNTVYLQMNSLKPEDTAVYYCNANWYEWYGWGQGTQVTVSS”, “low polyreactivity”.
To “QVQLVESGGGLVQAGGSIRLTCAASGTIFPYYAKGWYRQAPGKERELVAAISDSGDSTYYADSVKGRFTISRDNAKNTVYLQMNSLKPEDTAVYYCAADQTSSYYDPWGDYWGQGTQVTVSS” belongs “low polyreactivity”; to “QVQLVESGGGLVQAGGSLGLSCAASGFIFYAYVMGRYRQAPGKERELVAAISRNGGSTYYADSVKGRFTISRDNAKKSVYLQMNSLKPEDTAVYYCAALSYYRYSQEDDYWGQGTQVTVSS”, “high polyreactivity”; to “QVQLVESGGGLVQAGGSLGLSCAASGRIFSRNAMGWYRQATGKEREFVAAISRRGTSTYYADSVKGRFTISRDNAMNTVYLQMNSLNPESTAVYYCNVDQWASQRYSRYDYWGQGTQVTVSW”, “high polyreactivity”.
Take “QVQLVESGGGLVQAGGSLGLSCAASGRTFSQYAMGWYRQAPGKERELVAAISWSGGYTYYADSVKGRFTISRDNAKNTVYLQMNSLKPEDTAVYYCAAVGKGSARSSYPVLYDYWGQGTQVTVSS”: the “polyreactivity (PSR sort gate)” value is “low polyreactivity”.
The result for “QVQLVESGGGLVQAGGSLGLSCAASGRTFYRNAMGWYRQAPGIERELVAPITNGGRTYYADSVKGRFTISRDNAKNTVNLQMNSLKPEDTAVYYCNALDAKLSEYEYWGQGTEVTVSS” reads “low polyreactivity”; that for “QVQLVESGGGLVQAGGSLGLSCAASGSIFRGYAMGWYIQAPGKERELVAAITSSGGSTNYADSVKGRFTISRDNAKNTVYLQMNSLKPEDTAVYYCAAGVIREKYYIWSDYEYDYWGQGTQVNVSS”, “low polyreactivity”.
As to “QVQLVESGGGLVQAGGSLGLSCAASGSTFAGNTMGWYRQAPGKERELVATITRGDSTNYADSVKGRFTISRDNAKNTVYLQMNSLIPEDTAVYYCAAVGRRRTTVGRYVRMDYWGQGTQVTVSS”, the “polyreactivity (PSR sort gate)” value is recorded as “low polyreactivity”.
Turning to “QVQLVESGGGLVQAGGSLGLSCAASGYIFGIYAMGWYRQAAGKERELVAAISSDSTYYADSVKGRFTISRDNAKNTVYLQMNSLKPEDTAVYYCAPYWFNQDYEFEYWGQGTQVTVSS”, the “polyreactivity (PSR sort gate)” value is reported as “high polyreactivity”.
With “QVQLVESGGGLVQAGGSLHLSCAASGFTFGRYAMGWFRQAPGKERELVAAISRRGGSTYYADSVKGRFTISRDNANNTVYLQMNSLKPEDTAVYYCNVDKYRIVGFHSPYDYWVQGTQVTVSS”, the “polyreactivity (PSR sort gate)” value is “high polyreactivity”.
As for “QVQLVESGGGLVQAGGSLLLICAASGRTFPYNAMGWYRQAPGKEREFVAAISVGGGSTYADSVKGRFTISRDNAKNTVYLQMNSLKPEDTAVYYCAAAYTKLYYYWGQGTQVTVSS”, the “polyreactivity (PSR sort gate)” value is given as “low polyreactivity”.
To “QVQLVESGGGLVQAGGSLLLSCAASGFIFGLNAMGWYRQAPGKERELVAAIRSASSTNYADSVKGRFTISRDNAKNTVYLQMNSLKPEDTAVYYCAAEYVTYQQGFWGYDYWGQGTQVTVSS” belongs “low polyreactivity”.
To “QVQLVESGGGLVQAGGSLLLSCAASGGTFRNNAMGWYRQAPVKERELVAAISSSGTSTYYADSVKGRFTISRDNVKNTVYLQMNSLKPEDTAVYYCNADALGSPWWDHMDYWGQGTQVTVSS” belongs “low polyreactivity”.
The result for “QVQLVESGGGLVQAGGSLLLSCAASGGTFYYYAMGWYRQAPGKERELVASISSRGGSTYYADSVKGRFTISRDNAKNTVYLQMNSLKPEDTAVYYCAARSLYSGFGYWGQGTQVTVSS” reads “high polyreactivity”; that for “QVQLVESGGGLVQAGGSLLLSCAASGITFGVYAMGWYRQAPGKERELVAAISVNGGSTYYADSVKGRFTISRDNAKNTVYLQMNSLNPQDTAVYSCAADVLYYIDDDSIIEYDYWGQGTQVTVSS”, “low polyreactivity”.
Consider “QVQLVESGGGLVQAGGSLLLSCAASGITFSYYAMGWYRQAPGKERELVAAISRTGTSTYYADSVKGRFTISRDNAKNTVYLQMKSLKPEDTAVYYCAAVPRHPYHDKYDYWGQGTQVTVSS”, for which the “polyreactivity (PSR sort gate)” value is “high polyreactivity”.
In the case of “QVQLVESGGGLVQAGGSLLLSCAASGITSYYYAMGGYRQAPGKERELVAAITRGGRTKYADSVKGRFTISRDNAKNTVYLQMNSLKPEDTAVYYCAADVWGQGTQVTVSS”, the “polyreactivity (PSR sort gate)” value is on record as “high polyreactivity”.
To “QVQLVESGGGLVQAGGSLLLSCAASGLIFDPYAMGWYRQAPGKERELVADISSGGSTNYADSVKGRFTISRDNAKNTVYLQMNSLKPEDTAVYYCNKTIILDGYYFSLTLYDSWGQGTQVTVSS” belongs “low polyreactivity”.
To “QVQLVESGGGLVQAGGSLLLSCAASGLTFRRYNMGWYRQAPGKERELVAAISYSGGSTYYADSVKGRFTISRDNAKNTVYLQMNSLKPEDTAVYYCNDRYARVKQYGYWGQGTQVTVSS” belongs “low polyreactivity”; to “QVQLVESGGGLVQAGGSLLLSCAASGRIFQFYAMGWYRQAPGKERELVAGITTSGGSTYYADSVKGRFTISRDTAKNTVYLQMNSLKPEDTAVYYCAKRYYSSQFSKFGYWGQGSQVTVSS”, “high polyreactivity”.
